Laboratory results taken from paper PMC5696648.

Columns and labels:
[1] = tested on: LexA S119A (Escherichia coli); experiment: EMSA
[2] = tested on: LexA WT (Escherichia coli); experiment: EMSA

44-bp SOS consensus operator duplex
Kd [1]: 0.043 µM
Kd [2]: 0.047 µM
